Results from the nanobody polyreactivity screen of Harvey et al. (2022).

Test: yeast display, Sf9 membrane polyspecificity reagent, FACS + sequencing; frameworks hold sequencing errors
In short: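 After 36–48 hours of galactose induction, yeast (Saccharomyces cerevisiae BJ5465) displaying a synthetic nanobody library were stained at 4 °C for 1 hour with 10% biotinylated, detergent-solubilized Sf9 membrane reagent. Streptavidin microbeads enriched the stained cells before FACS sorting into low and high (top ~1%) gates on anti-HA and streptavidin fluorescence. Each clone's polyreactivity label reflects its gate of origin.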

Sequence	polyreactivity (PSR sort gate)
QVQIVESGRGLVQAGGSLRLSCAASGRIFYNDLMGWYRQAPGKERELVASISTGGTTYYSDSVKGRFTISRDNAKNTVYLQMNSLKPEDTAVYYCNAGLFYAPPFYTMDYWGQGTQVTVSS	low polyreactivity
QVQLVESGGGLVQAGGSLRLSCAATGINFRAYAMGWYRQAPGKERELVAAISSGGNTNYADSVKGRFTISRDNAKNTVYLQMNSLKPEDTAVYYCAAGYFWGRIKYYYWGQGTQVTVSS	high polyreactivity
QVQLVESGGGLVQAGGSLRLSCAASGRIFFANAMGWYRQAPGKERELVAAISYSGTSTYYADSVKGRFTISRDNAKNSVYLQMNSLKPEDTAVYYCNAGRYIKMGDWGQGTQVTVSS	high polyreactivity
QVQLVESGGGLVQAGGSLRLSCAPSGRIFFHYAMGWYRQAPGKERELVAAISRRGGNTYYADSVKGRFTISRDNAKNTVYLQMNRLKPEDTAVYYCAAQYRVGYDYWGQGTQVTVSS	high polyreactivity
QVQLVESGRGLVQAGGSHRLSCAASGSTITYYTMGWYREAPGKERELVAAISGSGGRTYYADSVKGRFTISRDNAKNTVYLQMNSLKPEDTAVYYCAAVYQLSRYDYWGQGTQVTVSS	high polyreactivity
QVQLVESGGGLVQAGGSLRLSCAASGSTFTTYAMGWYRQAPGKERELVAAISTNGGRTFYADSVKGRFTISRDNAKNTVYLQMISLKPEDTAVYYCAAEYGLYAPGYYYWGQGTQVTVSS	low polyreactivity
QVQLVESGGGLVQAGGSLRLSCAASGNTFTKYAMGWYRQAPGKERELVAGITRGGSTNYADSVKGRFTISRDNAKNTVYLQMNSLKPEDTAVYYCNARPVYGSRFYSAVRMEYWGQGTQVNVSS	low polyreactivity
QVKLLESGGGLVQAGGSLRLTCAASGSTFPPYAMGWYRQAPGTESELVAAISYRDTGTYYADSVKGRFTISRDNAKYTVYLQMNSLKPEDTAVYYCATLGYFSASRTDYDYWGQGTQVTVSS	low polyreactivity
QVQLVESGGGLVQAGGSLRLSCAASGYTFGQYAMGWYRQAPGKEREMVAAISSGGGSTYYADSVKGRFTISRDNAKTTVYLQMNSLKPEDTAVYYCAAQYLYPTYRYGYWGQGTQVTVSS	high polyreactivity
QVQLVESGGGLVQAGGSLRLSCAASGLTFYQNAMGWYRPAPGTERELVAGISSVGSTKYADSVKGRFTISRDNAKNTVYLQMNSLKPEDTAVYYCAPRFYAFRKGYYYWGQGTQVTVSS	high polyreactivity
QVQLVESGGGLVQAGGSLRLSCAASGRIFHGNAMGWYRQAPGKERELVARISSSGGGTYYADSVKGRFTISRDNAKNTVYLQMNSLKPEDTAVYYCAARRPDHTEVSNLRYDSWGQGTQVTVSS	low polyreactivity
QVQLVESGGGLVQAGGSLRLSCAASGNTFSWYAMGWYRQAPGKERELVAVIRDGSTYYADSVKGRFTISRDNAKNTVYLQMNRLKPEDTAVYYCRYDIWVWWSGAYDYWGQGTQVTVSS	low polyreactivity
QVQLVESGGGLVQAGGSLRLSCAASGRIYAMGWYRQAPGKERELVAAISRGGSTYYADSVKGRFTISRDNAKNTVYLQKNSLKPEDTAVYYCNRKSYRLRWKVRGQYLLGYDWGQGTQVTVSS	high polyreactivity
QVQLVESGGGLVQAGGSLRLSCAASGFIFPGNARGWYRQAPGKERELVAAISNSGSRTYYADSVKGRFTISRDNAKNTVYLQMNSLKPEDTAVYYCAALNYHKFAHKYDYWGQGTQVTVSS	low polyreactivity
QVQLVESGGGLLQAGGSLRLSFAASGFTFGRYAMGWYRQAPGKERELVAAISTSGGRTYYADSVKGRFTISRDNAKNTVYLQMNSLKPEDTAVYYCAAEQRRFTGYDYWGQGTQVTVSS	high polyreactivity
QVQLVESGGGLVQAGGSLRLTCAASGSTFFPNDMGWYRQAPGKERELVDAISWRGGNTYADSVKGRFTISRDNAKNTVLLQMNSLKPEDTAVYYCAADVEWTSRGSYYRYYYWGQGTQVTVSS	low polyreactivity

Sequence	polyreactivity (PSR sort gate)
QVQLVESGGGLVQAGGSLRLSCAASGITLGYYVMGWYRQAPGKERELVAAISSSGGRTYYADSVKGRFTISRDNAKNTVYLQMNSLKPEDTAVYYCAADLGRGIYDYWGQGTQVTVSS	low polyreactivity
QVQLVESGGGVVQAGGSLRLSCAASGIIFDGNAMGWYRQAPGKERELVAAITSSTDSTYYADSVKGRFTFSRDNAKNTVYLQMNSLKPEDTAVYYCAADYPSKTFDYWGQGTQVTVSS	low polyreactivity
QVQLVESGGGLVQAGGSLRLSCAASGGIFRLYGMGWYRQAPGKERELVAAIRQSGGRTYYADSVKGRFTISRDNAKNTVYLQMNSLKPEDTAVYYCAADLLYRSSGSARLDYDYWGQGTQVTVSS	low polyreactivity
QVQLVESGGGLVQAGGSLRLSCAASGLIFYRNAMGWYRQAPGKERELVAAISKNGGNTYYADSVKGRFTISRDNAKNTVFLQMNSLKTEDTAVYYCAARELYGPFGYWGQGTQVTVSS	high polyreactivity
QVQIVESGGGVVQAGGSLRLICAASGSTFNPYAMGSYRQAPGKERELVAAIRGRSGRTYYADSVKGRFTISRDNAKNTVYLQMTSLIPEDTAVYYCAARFSEYRTHPSEVYYWGQGTQVTVSS	high polyreactivity
QVQLVESGGGLVQAGGSLRLSCAPSGSIFRLYAMGWYRQAPGKERELVAAITSSGGRTYYADSVKGRFTISRDNAKNTVYLQINSLKPVDTAVYYCAAVGNRGDDYYWGQGTQVTVSS	high polyreactivity
QVQLVESGGGLVQAGGSLRLSCAASGRIFGYNVMGWYRQAPGKERELVAAISYSGGSTYYADSVKGRFTISRDNAKNTVYLQMNSLKPEDTAVYYCNAGYRGSSKYNYWGQGTQVTVSS	high polyreactivity
QDQHVESGRGLVQAGGSLRLSCSASGTIFAYVMGWNIQAPRKERQLVAAISRSGGSTYYADSVKGRFTISRDNAKNTVYLQMNSLKPEDTAVFYCAAVGSTVFGTRYYYWGEGTQVTVSS	high polyreactivity
QVQLVESGGGLVQAGGSLRLSCAASGSTFVTYAMGWYRQAPGKEREFVAAISTTGTGRTYYADSVKGRFTISRDNAKNTVYLQMNSLKPEDTAVYYCAADLYGTYDYWGQGTQVTVSS	low polyreactivity
QVQLVESGGGLVQAGGSLRLSCAASGIIFGYYAMGWYRQAPGKERELVAAITSGTSTYYADSVKGRFTISRDNAKNTVYLQMNSLKPEDTAVYYCNIVRRYGDEDSWGQGTQVTVSS	high polyreactivity
QVQLVESGGGLVQAGGSLRLSCAASGRTFRYYAMGWYRQAPGKERELVAAINWNGGRTYYADSVKGRFTISRDNAKNTVYLQMNSLKPEDTAVYYCAAYHYRSPVTGDYWGQGTQVTVSS	high polyreactivity
QVQLVESGVGLVQAGGSLRLSCASSGLTFNYYAIGWYRQAPGKERELVAAISSDGRTDYADSVKGRFTISRDNAKNTVYLQMNSLKPEDTAFYSCAVEYQSPDDYWGQGTQVTVSS	low polyreactivity
QVQLVESGGGLVQAGGSLRLSCAASGSTFSPYAMGWYRQAPGKERELVADISWPGGTTYYADSVKGRFTISRDNAKNTVYLQMNSLKPEVTAVYYCAVTYWDYTFQITYEYWGQGTQVTVSS	low polyreactivity
QVQLVESGGGLVQAGGSLRLSCAASGFIFSRYAMGWYRQAPGKERELVAAISRGGSTYYADYVKGRFTISRDNAKNTVYLQMNSLKPEDTAVYYCAVRQIVRYYYWGQGTQVTVSS	high polyreactivity
QVQLVESGGGLVQAGGSLRLSCAASGLTFTGYAMGWYRQAPGKERELVAAISSRGGSTYYADSVKGRFTISRDNAKNTVYLQMNSLKPEDTAVYYCAARASSGARGLDYWGQGTQVTVSS	high polyreactivity
QDQLGDSGGGLVQAGGSLRLSCAASGLTFYRYAMGWYRQAPGKERELVAAIRWNSGSTYYADSVKGRFTISRVNAKNTVYLQMNSLKPEDTAVYYCAATAIYPSAWRMAYWGQGTQVTVSS	high polyreactivity
